From PMC5103067, “Structural basis of GM-CSF and IL-2 sequestration by the viral decoy receptor GIF” (Nature Communications, 2016)

T1: Orf virus GM-CSF/IL-2 inhibition factor (GIF), residues 1-265, C-terminal His6-tag (Orf virus, UniProt Q9J5U5, N-linked glycans)
T1 construct: also called His-tagged GIF; Orf GIF; source: HEK293T, transient expression (pHLsec), secreted; alone purified by IMAC and SEC with 0.15% CHAPS
T1 sequence: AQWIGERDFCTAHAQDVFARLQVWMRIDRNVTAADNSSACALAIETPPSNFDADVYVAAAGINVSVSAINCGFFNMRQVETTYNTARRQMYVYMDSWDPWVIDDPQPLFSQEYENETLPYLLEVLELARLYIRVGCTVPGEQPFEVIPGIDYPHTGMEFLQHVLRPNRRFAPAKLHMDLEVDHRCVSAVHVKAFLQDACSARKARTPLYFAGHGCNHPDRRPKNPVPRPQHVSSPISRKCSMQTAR

T2: Biotinylated Orf GIF, residues 1-265, C-terminal AviTag (Orf virus, UniProt Q9J5U5, biotin (AviTag, by co-expressed E. coli BirA))
T2 chain: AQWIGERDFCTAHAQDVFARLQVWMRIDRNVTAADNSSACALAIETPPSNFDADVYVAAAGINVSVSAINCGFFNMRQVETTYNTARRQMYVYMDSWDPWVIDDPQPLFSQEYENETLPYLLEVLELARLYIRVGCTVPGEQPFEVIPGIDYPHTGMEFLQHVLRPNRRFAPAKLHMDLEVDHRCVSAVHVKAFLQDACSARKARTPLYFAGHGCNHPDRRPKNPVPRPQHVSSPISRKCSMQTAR

T3: Biotinylated Orf GIF, residues 1-265, C-terminal AviTag (Orf virus, UniProt Q9J5U5, biotin (AviTag, by co-expressed E. coli BirA))
T3 construct: also called biotinylated GIF; wild-type GIF; source: HEK293T, co-transfected with BirA (pDisplayBirA-ER), expression medium desalted into HBS; not shown: AviTag, C-terminal, kept
T3 sequence: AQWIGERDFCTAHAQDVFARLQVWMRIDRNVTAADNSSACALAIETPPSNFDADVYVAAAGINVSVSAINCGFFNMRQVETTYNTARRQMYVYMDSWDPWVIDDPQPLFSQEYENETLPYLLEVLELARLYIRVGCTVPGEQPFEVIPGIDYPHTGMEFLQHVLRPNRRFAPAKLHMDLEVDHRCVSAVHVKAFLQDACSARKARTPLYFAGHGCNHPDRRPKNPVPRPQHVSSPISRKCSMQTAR

B1: ovine GM-CSF (granulocyte macrophage colony-stimulating factor), residues 18-144, as used as the ligand in BLI (ligand)
chain: APTRQPSPVTRPWQHVDAIKEALSLLNDSTDTAAVMDETVEVVSEMFDSQEPTCLQTRLELYKQGLRGSLTSLTGSLTMMASHYKKHCPPTQETSCETQIITFKSFKENLKDFLFIIPFDCWEPVQK
B2: ovine GM-CSF, residues 18-144, C-terminal His6-tag, from HEK293T (ligand, UniProt P28773 18-144, looked up)
chain: APTRQPSPVTRPWQHVDAIKEALSLLNDSTDTAAVMDETVEVVSEMFDSQEPTCLQTRLELYKQGLRGSLTSLTGSLTMMASHYKKHCPPTQETSCETQIITFKSFKENLKDFLFIIPFDCWEPVQK
notes: also called oGM-CSF; source: HEK293T, transient expression (pHLsec); purified (TALON IMAC, SEC) or co-expressed with GIF and purified as a complex
B3: ovine GM-CSF as used as ligand in bio-layer interferometry (ligand, UniProt P28773 18-144, looked up)
chain: APTRQPSPVTRPWQHVDAIKEALSLLNDSTDTAAVMDETVEVVSEMFDSQEPTCLQTRLELYKQGLRGSLTSLTGSLTMMASHYKKHCPPTQETSCETQIITFKSFKENLKDFLFIIPFDCWEPVQK
notes: also called oGMCSF; oGM-CSF
B4: ovine IL-2 (interleukin-2), residues 21-155, as used as the ligand in BLI (ligand)
chain: APTSSSTGNTMKEVKSLLLDLQLLLEKVKNPENLKLSRMHTFNFYMPKVNATELKHLKCLLEELKLLEEVLDLAPSKNLNTREIKDSMDNIKRIVLELQGSETRFTCEYDDATVKAVEFLNKWITFCQSIYSTMT
B5: ovine IL-2 as used as ligand in bio-layer interferometry (ligand, UniProt P19114 21-155, looked up)
chain: APTSSSTGNTMKEVKSLLLDLQLLLEKVKNPENLKLSRMHTFNFYMPKVNATELKHLKCLLEELKLLEEVLDLAPSKNLNTREIKDSMDNIKRIVLELQGSETRFTCEYDDATVKAVEFLNKWITFCQSIYSTMT
notes: also called oIL-2
B6: ovine IL-2, residues 21-155, C-terminal His6-tag, from HEK293T (ligand, UniProt P19114 21-155, looked up)
chain: APTSSSTGNTMKEVKSLLLDLQLLLEKVKNPENLKLSRMHTFNFYMPKVNATELKHLKCLLEELKLLEEVLDLAPSKNLNTREIKDSMDNIKRIVLELQGSETRFTCEYDDATVKAVEFLNKWITFCQSIYSTMT
notes: also called oIL-2; source: HEK293T, transient expression (pHLsec); purified (TALON IMAC, SEC) or co-expressed with GIF and purified as a complex

Tests used:
[1] = molecular target: GIF R45A, residues 1-265, C-terminal AviTag, biotinylated (Orf virus) (UniProt Q9J5U5); experiment: BLI; biotinylated GIF (wild type or mutant) on streptavidin-coated biosensors, quenched with biocytin; ligand GM-CSF 1-8 uM or IL-2 3.75-30 nM; PBS pH 7.4, 0.01% BSA, 0.002% Tween-20; 298 K; Octet RED96; 1:1 interaction model; averages of triplicates
[2] = molecular target: GIF R188A, residues 1-265, C-terminal AviTag, biotinylated (Orf virus) (UniProt Q9J5U5); experiment: as above
[3] = molecular target: GIF H232A, residues 1-265, C-terminal AviTag, biotinylated (Orf virus) (UniProt Q9J5U5); experiment: as above
[4] = molecular target: GIF R106A/R188A, residues 1-265, C-terminal AviTag, biotinylated (Orf virus) (UniProt Q9J5U5); experiment: as above
[5] = molecular target: GIF K211A, residues 1-265, C-terminal AviTag, biotinylated (Orf virus) (UniProt Q9J5U5); experiment: as above
[6] = molecular target: GIF R45A/R106A, residues 1-265, C-terminal AviTag, biotinylated (Orf virus) (UniProt Q9J5U5); experiment: as above
[7] = molecular target: T1, Orf virus GM-CSF/IL-2 inhibition factor …; experiment: SEC-MALS; complexes purified after co-expression of GIF and cytokine in HEK293T; 1-2 mg/ml; Superdex Increase 10/300 GL in HBS pH 7.5, 298 K; conditions: both partners purified
[8] = molecular target: T2, Biotinylated Orf GIF, residues 1-265, …; experiment: BLI
[9] = molecular target: T3, Biotinylated Orf GIF, residues 1-265, …; experiment: BLI; biotinylated GIF on streptavidin sensors, quenched with biocytin; cytokine in solution (GM-CSF 1-8 μM, IL-2 3.75-30 nM); PBS pH 7.4, 0.01% BSA, 0.002% Tween-20, 298 K; 1:1 model, triplicates; conditions: one partner purified

Row | Binder | Kd [1] [nM] | Kd [2] [nM] | Kd [3] [nM] | Kd [4] [nM] | Kd [5] [nM] | Kd [6] [nM] | stoichiometry N [7] | koff [8] [s⁻¹] | Kd [9] [nM]
1 | B1 | 280 | 570 | 670 | 270 | 3700 | 380 |  |  | 
2 | B2 |  |  |  |  |  |  | 2 cytokines per GIF dimer (2:2) |  | 
3 | B3 |  |  |  |  |  |  |  | 6.2e-05 | 27
4 | B4 | 0.69 | 4.8 | 0.63 | 5.3 | 0.46 | 0.45 |  |  | 
5 | B5 |  |  |  |  |  |  |  | 0.00015 | 0.47
6 | B6 |  |  |  |  |  |  | 2 cytokines per GIF dimer (2:2) |  | 
